From patent US8624002B2, “Prostaglandin E2 binding proteins and uses thereof” (AbbVie, Inc., priority 2008, dated 2014)

Experiments:
[1] = Capillary zone electrophoresis; assay type: physicochemical; conditions: running buffer pH 5.5; compared with Hu2B5.2, Hu2B5.4, Hu2B5.6, Hu2B5.8
Source text: Capillary zone electrophoresis is a capillary electrophoresis method in which the capillary is filled with buffer and the separation mechanism is based on differences in electrophoretic mobility of the analyte through the buffer. The electrophoretic mobility of a molecule is related to the charge-to-size ratio. A Beckman-Coulter ProteomeLab PA 800 (Beckman Coulter, Fullerton, Calif.) was used for the CZE analysis. A neutral capillary (eCAP neutral, 56 cm total length, 50 μm I. D. Beckman-Coulter, P/N 477441, Fullerton, Calif.) was used. The method used a 30.2 cm capillary with a detection window 20.2 cm from the sample introduction inlet. The running buffer was 100 mM EACA (6-Aminocaproic acid, Sigma A7824-100 G, St. Louis, Mo.) with 0.1% MC (from 1% Methylcellulose solution, Convergent Bioscience, cat# 101876, Toronto, ON, Canada), pH 5.5.

[2] = Accelerated stability screening monitored by SEC; assay type: physicochemical; conditions: for Aggregate (%) / Fragment (%) / Monomer (%): SEC
Description: Size exclusion chromatography was used to separate proteins based on size. Proteins are carried in an aqueous mobile phase and through a porous stationary phase resin packed in a column. The retention time in the column is a function of the hydrodynamic size of the protein and the size of the pores in the packed resin bed. Smaller molecules can penetrate into smaller pores in the resin and are retained longer than larger molecules. Upon elution from the column the proteins are detected by UV absorbance. The SEC method used a TSK gel guard (TOSOH Biosciences, Montgomeryville, Pa., cat. no. 08543) and a TSK gel G3000SWxL (TOSOH Biosciences, Montgomeryville, Pa., cat. no. 08541). The mobile phase was 100 mM Na2HPO4, 200 mM Na2SO4, pH 7.0. The flow rate was 0.3 mL/minute. Injection volume was 20 μL of 1 mg/mL sample. The column temperature was room temperature. The autosampler temperature was 2-8° C. The total run time was 50 minutes. The detection was based on UV absorbance at 214 nm wavelength, with band width set at 8 nm, using reference wavelength at 360 nm with band width 100 nm.
(§1) The stability of a series of clones (i.e., anti-PGE2 antibodies) of the parent anti-PGE2 antibody was assessed by using intrinsic thermodynamic clone stability determination using DSC (0.79 mg/mL clone concentration, formulated at pH 6 in a 10 mM citrate, 10 mM phosphate buffer) and by accelerated stability screening (0.79 mg/mL clone concentration, formulated at pH 6 in a 10 mM citrate, 10 mM phosphate buffer, for 7 days at 50° C.) where clone stability was monitored with SEC (Table 15).

[3] = tested on: PGE2 induced Ca++ influx in HEK293 Gα16 cells stably transfected with human EP4 receptor; assay: EP4 bioassay: PGE2 induced Ca++ flux (FLIPR); assay type: cell-based; conditions: PGE2 25 pm; read-out: IC50 (pM) @ PGE2 25 pm Cellular Potency in EP4 assay
Description: The ability of anti-PGE2 antibody to inhibit cellular response of PGE2 in vitro was determined in a Ca^++ flux assay in HEK293 Gα16 cells (Abbott Bioresearch Center, Worcester, Mass.) stably transfected with human EP4 receptor. In brief, an expression plasmid encoding one of the four human PGE2 receptors, EP4, and an expression plasmid encoding Gα16, were co-transfected into human embryonic kidney cell line 293 cells (ATCC# CRL1573, Manassas, Va.). The stable clones co-expressing both human EP4 and Gα16 protein were selected using standard methods (Joseph Sambrook and David W. Russell. Molecular Cloning: A Laboratory Manual Publisher. Published by Cold Spring Harbor Laboratory Press, 2001) and used for the EP4 bioassay. The HEK293 Gα16 cells were plated in black/clear poly-D-lysine plates (Corning #3667, Corning, N.Y.) and incubated with a Ca^++-sensitive dye (Molecular Devices, Sunnyvale, Calif.) for 90 minutes. Stock PGE2 (in 200 proof ethanol) was diluted with FLIPR buffer [containing 1×HBSS (Invitrogen Carlsbad, Calif.), 20 mM HEPES (Invitrogen Carlsbad, Calif.), 0.1% BSA (Sigma, St. Louis, Mo.) and 2.5 mM Probenecid (Sigma, St. Louis, Mo.)]. Anti-PGE2 antibodies or isotype matched control antibodies were also pre-diluted in FLIPR buffer. 25 μl of PGE2 or pre-incubated PGE2/antibody mixture was added to the wells pre-plated with cells. The dose response of PGE2 was determined on a serial titration of PGE2 and using FLIPR1 or Tetra (Molecular Devices, Sunnyvale, Calif.) and EC50 was determined using GraphPad Prism 5 (GraphPad Software, La Jolla, Calif.). […] Ca^++ flux was monitored using FLIPR1 and data was analyzed using GraphPad Prism 5 (GraphPad Software, La Jolla, Calif.).

[4] = Intrinsic thermodynamic stability by DSC; assay type: physicochemical
Description: The thermal stability of the anti-PGE2 antibodies was assessed using a DSC instrument. The DSC instrument used was an automated VP-DSC equipment with Capillary Cell (Microcal, GE Healthcare Ltd./Microcal, Buckinghamshire, UK). Unfolding of molecules was studied applying a 1° C./minute scan rate over a 25° C.-95° C. temperature range for samples at 1 mg/mL. Additional measurement parameters applied were a fitting period of 16 seconds, a pre-scan wait time of 10 minutes, and measurements were performed in none-feedback mode. Per individual measurement, 420 μL of sample/blank were filled into the DSC measurement sample holder, with a plate fill scheme as provided below. The thermograms obtained were fitted to a non two state model to obtain the midpoint temperatures and enthalpies of the different transitions.
as §1

[5] = ^3H-PGE2 ELISA (binding)
Description: Alternatively, prostaglandin binding was determined using a ^3H-PGE2 ELISA. Plates were coated at 50 μL/well with 5 μg/ml of goat anti-human IgG (Fc) (Thermo Scientific # 31170, Hudson, N.H.) or goat anti-mouse IgG (Fc) (Thermo Scientific # 31125, Hudson, N.H.) in PBS and incubated overnight at 4° C. The following day, plates were flicked and blotted dry. Plates were blocked with 200 μL/well of Superblock (Thermo Scientific # 37515, Hudson, N.H.) for 1 hour at room temperature. Plates were flicked and blotted dry. Monoclonal antibodies were diluted to 0.04 μg/ml in phosphate buffer solution with Tween 20 (PBST) (Abbott Bioresearch Center, Worcester, Mass.) and 10% Superblock and 50 μL of each antibody was added to each well of the pre-blocked ELISA plate at 2 ng/well and incubated for 1 hour at room temperature. Wells were washed 3 times with PBS+0.1% Tween-20. A serial 3-fold titration of ^3H-PGE2 (Perkin Elmer # NET-428, Waltham, Mass.) was prepared in PBST/10% Superblock. Fifty microliters of the ^3H-PGE2 solution was added to each well of the plate and incubated for 1 hour at room temperature. […] Plates were read using a TopCount reader (Perkin Elmer, Waltham, Mass.) with a 5 minute count delay. An EC50 number was determined using GraphPad Prism 5 (GraphPad Software, La Jolla, Calif.).

IC50 [5]: 0.704 nM
B1: Hu2B5.9: humanized 2B5-8.0; VH SEQ ID NO 76, VL SEQ ID NO 77 (antibody, V domains shown)
VH: EVQLVQSGAEVKKPGASVKVSCKASGYTFTKYWLGWVRQAPGQGLEWMGDIYPGYDYTHYNEKFKDRVTMTTDTSTSTAYMELRSLRSDDTAVYYCARSDGSSTYWGQGTLVTVSS
VL: DIVMTQTPLSLPVTPGEPASISCTSSQNIVHSNGNTYLEWYLQKPGQSPQLLIYKVSNRFSGVPDRFSGSGSGTDFTLKISRVEAEDVGVYYCFQVSHVPYTFGGGTKVEIKR
migration in capillary zone electrophoresis [1]: migrated more basic
monomer levels after 7 days accelerated stability screening ([2]; 7 days at 50° C.): highest monomer levels
Aggregate (%) ([2]; 7 days storage at 50° C.): 1.9559%
Fragment (%) ([2]; 7 days storage at 50° C.): 3.4127%
Monomer (%) ([2]; 7 days storage at 50° C.): 94.6313%
Fragment (%) ([2]; start of stability study): 2.541%
Monomer (%) ([2]; start of stability study): 95.6031%
Aggregate (%) ([2]; start of stability study, 0.79 mg/mL, pH 6): 1.8559%
IC50 [3]: 125 pM
Tm1 (° C.) ([4]; 0.79 mg/mL, pH 6, 10 mM citrate, 10 mM phosphate): 73.235 °C
Tm2 (° C.) ([4]; same buffer): 75.965 °C
Tm3 (° C.) ([4]; same buffer): 83.04 °C
